From US20240400640A1 come the findings set out here.

This assay deals with FcRn (human) (UniProt P55899). The assay is described as follows: Lumit FcRn binding immunoassay (competition); pH 6.0.
Chain of FcRn (human) (P55899 24-297, chain 1 of 2): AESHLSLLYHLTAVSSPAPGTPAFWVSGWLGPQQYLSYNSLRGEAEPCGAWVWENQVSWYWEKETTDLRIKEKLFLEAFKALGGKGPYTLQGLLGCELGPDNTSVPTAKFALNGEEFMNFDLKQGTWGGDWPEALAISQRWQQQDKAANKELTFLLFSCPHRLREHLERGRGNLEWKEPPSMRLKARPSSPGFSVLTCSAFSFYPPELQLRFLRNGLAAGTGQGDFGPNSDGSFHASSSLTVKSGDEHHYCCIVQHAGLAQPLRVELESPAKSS
Chain of FcRn (human) (main, as listed by the source, chain 2 of 2): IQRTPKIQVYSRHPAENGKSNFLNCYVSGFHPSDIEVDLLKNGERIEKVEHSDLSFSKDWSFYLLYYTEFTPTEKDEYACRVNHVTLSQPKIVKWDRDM

hIgG1 gave an IC50 of 12.8 nM.

The IC50 is the concentration that gives 50% inhibition. A high value points to a need for much substance.
